# Results from publication PMC11514480.
# Where two headings read alike, the source gives them in different places.
# Experiments:
# Test in all cases: smFRET
# yeast RPA = yeast RPA (Saccharomyces cerevisiae, UniProt P22336;P26754;P26755 1-621;1-273;1-122)
# [1] = biological target: T1, human RPA (RPA70-RPA32-RPA14) (human, UniProt P27694;P15927;P35244 1-616;1-270;1-121)
# [2] = biological target: T1, human RPA (RPA70-RPA32-RPA14); remark: listed apart in the source
# T1 sequence (P27694 whole entry, chain 1 of 3): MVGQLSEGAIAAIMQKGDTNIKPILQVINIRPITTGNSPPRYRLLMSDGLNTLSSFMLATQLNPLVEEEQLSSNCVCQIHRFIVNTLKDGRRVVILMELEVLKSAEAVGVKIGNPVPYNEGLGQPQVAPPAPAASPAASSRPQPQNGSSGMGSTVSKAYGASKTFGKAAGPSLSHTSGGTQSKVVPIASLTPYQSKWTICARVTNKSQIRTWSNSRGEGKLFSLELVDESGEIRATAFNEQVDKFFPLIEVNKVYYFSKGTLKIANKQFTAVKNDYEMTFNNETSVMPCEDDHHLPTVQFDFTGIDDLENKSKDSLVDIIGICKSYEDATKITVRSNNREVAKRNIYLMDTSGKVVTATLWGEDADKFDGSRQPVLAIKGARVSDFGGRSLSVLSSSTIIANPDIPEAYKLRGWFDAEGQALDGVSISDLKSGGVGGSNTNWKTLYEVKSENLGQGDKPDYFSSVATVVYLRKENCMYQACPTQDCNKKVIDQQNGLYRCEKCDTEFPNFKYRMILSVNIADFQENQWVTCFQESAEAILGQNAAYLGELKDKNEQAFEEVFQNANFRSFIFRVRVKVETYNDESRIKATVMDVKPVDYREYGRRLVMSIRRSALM
# T1 sequence (P15927 whole entry, chain 2 of 3): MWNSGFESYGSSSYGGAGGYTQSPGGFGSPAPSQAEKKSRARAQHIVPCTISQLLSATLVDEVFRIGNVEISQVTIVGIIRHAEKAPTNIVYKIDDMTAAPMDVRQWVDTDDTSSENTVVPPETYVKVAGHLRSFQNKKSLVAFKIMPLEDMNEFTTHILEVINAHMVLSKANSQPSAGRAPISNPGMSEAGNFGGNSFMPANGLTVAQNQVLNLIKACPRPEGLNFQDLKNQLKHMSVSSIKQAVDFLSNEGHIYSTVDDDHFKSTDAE
# T1 sequence (P35244 whole entry, chain 3 of 3): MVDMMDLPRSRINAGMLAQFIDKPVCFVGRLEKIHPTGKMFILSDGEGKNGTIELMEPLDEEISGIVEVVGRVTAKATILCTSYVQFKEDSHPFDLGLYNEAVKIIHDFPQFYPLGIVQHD
# Chain of yeast RPA (P22336 whole entry, chain 1 of 3): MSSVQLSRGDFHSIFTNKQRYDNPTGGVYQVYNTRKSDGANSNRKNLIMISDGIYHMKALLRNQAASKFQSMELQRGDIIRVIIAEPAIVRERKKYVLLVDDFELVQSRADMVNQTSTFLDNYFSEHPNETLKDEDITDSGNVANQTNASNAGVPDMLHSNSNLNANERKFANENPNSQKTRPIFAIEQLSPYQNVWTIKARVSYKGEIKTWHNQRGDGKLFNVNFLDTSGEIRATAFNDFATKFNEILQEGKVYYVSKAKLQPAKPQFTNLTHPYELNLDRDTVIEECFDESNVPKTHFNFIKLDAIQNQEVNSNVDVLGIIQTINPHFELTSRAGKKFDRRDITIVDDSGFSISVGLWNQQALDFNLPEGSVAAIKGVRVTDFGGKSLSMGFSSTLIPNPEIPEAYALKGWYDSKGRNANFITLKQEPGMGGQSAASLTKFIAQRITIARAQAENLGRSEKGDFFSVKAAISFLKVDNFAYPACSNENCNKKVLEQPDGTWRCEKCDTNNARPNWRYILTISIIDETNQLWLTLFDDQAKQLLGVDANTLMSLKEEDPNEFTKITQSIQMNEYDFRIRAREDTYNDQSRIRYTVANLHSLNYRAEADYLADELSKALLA
# Chain of yeast RPA (P26754 whole entry, chain 2 of 3): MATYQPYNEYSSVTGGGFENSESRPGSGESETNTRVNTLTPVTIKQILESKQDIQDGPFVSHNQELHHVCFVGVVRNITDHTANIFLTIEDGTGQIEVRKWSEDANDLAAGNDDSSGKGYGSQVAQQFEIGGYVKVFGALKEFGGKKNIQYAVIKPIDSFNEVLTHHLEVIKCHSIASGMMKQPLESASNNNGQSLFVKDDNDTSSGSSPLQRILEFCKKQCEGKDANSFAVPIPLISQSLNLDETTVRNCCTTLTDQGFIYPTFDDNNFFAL
# Chain of yeast RPA (P26755 whole entry, chain 3 of 3): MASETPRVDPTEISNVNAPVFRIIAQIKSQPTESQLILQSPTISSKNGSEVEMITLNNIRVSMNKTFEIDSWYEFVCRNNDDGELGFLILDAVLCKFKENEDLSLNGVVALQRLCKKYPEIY
Binder,binding result (yeast RPA),binding result [1],binding result [2]
TTTTTTTTTTTTTTTTTTTTTTTTT (ssDNA) [(dT)25],binds,binds,–
TTTTTTTTTTTTTTTTTTTTTTTTTTTTTT (ssDNA) [(dT)30],–,–,binds
TTTTTTTTTTTTTTT (ssDNA) [(dT)15],–,–,binds
TTTTTTTTTTTTTTTTTTTTTTTTTTTTTTTTTTTTTTTTTTTTT (ssDNA) [(dT)45],–,–,binds
